In publication PMC7023026, “A Label-Free Fluorescent Aptasensor for Detection of Staphylococcal Enterotoxin A Based on Aptamer-Functionalized Silver Nanoclusters”:

Molecular target: Staphylococcal enterotoxin A (SEA) (Staphylococcus aureus, UniProt P0A0L2 25-257)
Sequence (P0A0L2 25-257): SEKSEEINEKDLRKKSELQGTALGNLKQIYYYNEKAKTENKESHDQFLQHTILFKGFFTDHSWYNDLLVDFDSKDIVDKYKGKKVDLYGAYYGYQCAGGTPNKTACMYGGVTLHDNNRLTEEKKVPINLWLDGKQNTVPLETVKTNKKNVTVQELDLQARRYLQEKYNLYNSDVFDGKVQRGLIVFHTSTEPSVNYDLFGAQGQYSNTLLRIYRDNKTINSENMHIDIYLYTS

B1: C6G5C6-apt (AgNC template) (structured_DNA)
DNA: CCCCCCGGGGGCCCCCCAGCAGCACAGAGGTCAGATGTACTTATGCATTTCCTCCCACGATCTTATTTGAGAGTGACCCTATGCGTGCTACCGTGAA
**Q.** Does B1 bind?
**A.** Result: binds
